Measurements: PMC12422735

Test system: Δ40p53β (TS, purified)
Assay: SPR
Details: Hill slope fit; SPR: 25 mM HEPES pH 7.5, 200 mM NaCl, 0.5 mM TCEP, 0.005% Tween-20, 20 °C; pull-down: 50 mM HEPES pH 7.5, 200 mM NaCl, 0.1% Tween-20, 0.5 mM TCEP, 4 °C

In the case of p21 RE 20 bp, the binding signal (fold lower affinity than DBD-OD) is reported as 280.
